In US20260116991A1 (HAINAN SIMCERE ZAIMING PHARMACEUTICAL, published 2026):

Tests used:
monkey GPC3-His protein [1] = molecular target: T1, monkey GPC3-His protein (monkey); test: ELISA, monkey GPC3-His coated;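 further: Plate-coated antigen at 1 µg/mL, antibody binding 2 h at 37 °C, detected with HRP-labeled secondary antibody and TMB, absorbance at 450 nm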
T1 construct: Bought recombinant protein; also called monkey GPC3 protein

human GPC3-His protein = molecular target: T2, human GPC3-His protein (human, UniProt P51654 25-559); test: SPR, antibody captured on Protein A chip, human GPC3-His analyte;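 further: measured at 25 °C flow cell, human GPC3-His injected at five concentrations up to 200 nM, 240 s association, up to 600 s dissociation, double-referenced, fitted to Langmuir 1:1 model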
T2 construct: also called human GPC3 protein; not shown: His tag

monkey GPC3-His protein [2] = molecular target: T1, monkey GPC3-His protein; test: SPR, antibody captured on Protein A chip, monkey GPC3-His analyte;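 further: run at 25 °C with 240 s association and up to 600 s dissociation, double-referenced, kinetics fitted to a 1:1 Langmuir binding model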
Experimental: The flow cell was set at 25° C. The sample block was set at 16° C. Both were pretreated with the running buffer. In each cycle, first, the antibody to be tested was captured using the Protein A chip, and then a single concentration of GPC3 antigen protein was injected. […] The association was determined by injecting different concentrations of human GPC3-His in the solution and maintaining for 240 s, wherein the flow rate was 30 μL/min, and the protein was diluted at a 1:1 dilution ratio from 200 nM to obtain 5 concentrations in total. The dissociation phase was monitored for up to 600 s and triggered by switching from the sample solution to the running buffer. The surface was regenerated by washing with 10 mM glycine solution (pH 1.5) at a flow rate of 30 μL/min for 30 s. The difference in bulk refractive index was corrected by subtracting the responses obtained from the goat anti-human Fc surface. Blank injections (double reference) were also subtracted. To calculate the apparent KD and other kinetic parameters, the Langmuir 1:1 model was used.

[3] = molecular target: T3, monkey GPC3 on HEK293T-monkey GPC3 cells (monkey); test: FACS on HEK293T-monkey GPC3 cells;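 further: flow cytometry binding of test antibodies to the cells, read as mean fluorescence intensity, with half-maximal concentration taken from fitted curves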
T3 construct: whole, on cells

Row | Binder | OD450 at 0.0001 nM (monkey GPC3-His protein [1]) [OD450] | OD450 at 0.001 nM (monkey GPC3-His protein [1]) [OD450] | OD450 at 0.01 nM (monkey GPC3-His protein [1]) [OD450] | OD450 at 0.1 nM (monkey GPC3-His protein [1]) [OD450] | OD450 at 1 nM (monkey GPC3-His protein [1]) [OD450] | OD450 at 10 nM (monkey GPC3-His protein [1]) [OD450] | OD450 at 100 nM (monkey GPC3-His protein [1]) [OD450] | Kd (human GPC3-His protein) [nM] | koff (human GPC3-His protein) [s⁻¹] | kon (human GPC3-His protein) [M⁻¹ s⁻¹] | Kd (monkey GPC3-His protein [2]) [nM] | koff (monkey GPC3-His protein [2]) [s⁻¹] | kon (monkey GPC3-His protein [2]) [M⁻¹ s⁻¹] | EC50 [3] [nM] | Max MFI [3] [MFI]
1 | F1.62.9 (antibody, human IgG1, kappa, V domains shown, Human-murine chimeric antibody) VH: QVQLQQSDAELVKPGASVKISCKVSGYIFTDHTIHWMKQRPEQGLEWIGYIYPRDGSIKYNENFKGKATLTADKSSSATYMQLNSLTSEDSAVYFCARPIYYDYAYYFDYWGQGTTLTVSS VL: DVVMTQSPLSLPVSLGDQASISCRSRQSLVHSNGNTYLHWYLQKPGQSPKVLIYKVSNRFSGVPDRFSGSGSGTDFTLKISRVEAEDLGVYFCSQSTHVPYTFGGGTKLEIKR | 0.21 | 0.36 | 0.39 | 0.56 | 0.64 | 0.66 | 1.06 | 46 | 0.00129 | 28000 | 44 | 0.00156 | 35500 |  | 
2 | F2.23.8 (antibody, human IgG1, kappa, V domains shown, Human-murine chimeric antibody) VH: QVQLQQSGAELVRPGASVKLSCKASGYTFTDYEMHWVKQTPVHGLEWFGAIDPETGGTAYNQKFRAKATLTADKSSSTAYMELRSLTSEDSAVYYCTRFYSFAYWGQGTLVTVSA VL: DVVMTQTPLSLPVSLGDQASISCRSSQSLVHSNGNTYLQWYLQKPGQSPKLLIYKVSNRFSGVPDRFSGSGSGTDFTLKITRVEAEDLGVYFCSQSTHVPYTFGSGTKLEIKR | 0.27 | 0.28 | 0.58 | 1.8 | 2.22 | 2.24 | 2.25 | 20.4 | 0.00327 | 161000 | 13.5 | 0.0038 | 281000 |  | 
3 | F2.39.2 (antibody, human IgG1, kappa, V domains shown, Human-murine chimeric antibody) VH: QVQLQQSGAELVRPGASVKVSCKASGYTFTDYEMHWMKQTPVHGLEWIGANEPETGRSAYDQKFKGKATLTADKSSSTAYMELRSLTSEDSAVYYCTRFYSFAYWGQGTLVTVSA VL: DVVMTQTPLSLPVSLGDQASISCRSSQGLVHNNGNTYLHWYLQKPGQSPKLLIYKVSNRFSGVPDRFSGSGSGTDFTLKISRVEAEDLGVYFCSQNTHVPPTFGGGTKLEIKR | 0.21 | 0.34 | 0.66 | 1.98 | 2.36 | 2.28 | 2.35 | 6.97 | 0.0021 | 302000 | 4.28 | 0.00219 | 512000 |  | 
4 | F2.92.1 (antibody, human IgG1, kappa, V domains shown, Human-murine chimeric antibody) VH: QVQLQQSGAELVRPGASVKLSCKASGYIFSDYEIHWVKQTPVHGLECIGAVDPETGGTAYNQKFKGKATLTADKSSSTAYMELRSLTSEDSAVYFCTRFYSFAYWGQGTLVTVST VL: DVVMTQTPLSLPVSLGDQGSISCRSSQSLVHSNGNTYLQWYLQKPGQSPKLLIYKVSNRFSGVPDRFSGSGSGTDFTLKISRVEAEDLGVYFCCQSTHVLPTFGGGTKLEIKR | 0.23 | 0.27 | 0.65 | 1.9 | 2.3 | 2.24 | 2.34 | 0.6 | 0.000242 | 404000 | 0.353 | 0.000221 | 628000 |  | 
5 | F1.73.9 (antibody, human IgG1, kappa, V domains shown, Human-murine chimeric antibody) VH: QVQLKQSGAELVRPGASVKLSCKASGYTFTDYYINWVKQRPGQGLEWIARIYPGSGNTYYNEKFKGKATLTAEKSSSTAYMQFSSLTSEDSAVYFCACSTYYTMDYWGQGTSVTVSS VL: QIVLTQSPAIMSASLGERVTMTCTASSGVSSSYLHWYQQKPGSSPKLWIYTTSNLASGVPARFSGSGSGTSYSLTISSMEAEDAATYYCHQYHRSPYTFGGGTKLEIKR | 0.05 | 0.06 | 0.18 | 0.73 | 1.14 | 1.27 | 1.47 |  |  |  |  |  |  | 0.32 | 5700
6 | F1.9.19 (antibody, human IgG1, kappa, V domains shown, Human-murine chimeric antibody) VH: DVQLQESGPGLVKPSQSLSLTCSVTGYSITSGYYWNWIRQFPGNRLEWMAYISYDGINNYNPSLKNRISIARDTSTNQFFLKLNSVTSEDTATYYCATTTEVALFDHWGQGTTLTVSS VL: DVLLTQTPLSLPVSLGDQASISCRSSQNIVHGNGNTYLEWFLQKPGQSPKLLIYKVSNRFSGVPDRFSGSGSGTDFTLKISRVEAEDLGLYYCFQASHVPWTFGGGTKLEIKR | 0.04 | 0.25 | 0.3 | 0.72 | 1.39 | 1.53 | 1.5 | 9.04 | 0.000314 | 34700 | 6.61 | 0.000317 | 48000 |  | 
7 | F2.169.2 (antibody, human IgG1, kappa, V domains shown, Human-murine chimeric antibody) VH: EVQLVETGGGLVQPKGSLKLSCAASGFSFNTNAMNWVRQAPGKGLEWVARIRSKSNNYATYYADSVKDRFTISRDDSQSMLYLQMNNLKTEDTAMYYCVRDGYYVLFAYWGQGTLVTVSA VL: DVLMTQTPLSLPVSLGDQASISCRFSQSIVNSNGNTYLEWFLQKPGQSPKLLIYKVSNRFSGVPDRFSGSGSGTDFTLKISRVEAEDLGVYYCFQGSHVPFTFGTGTKLEIKR | 0.05 | 0.07 | 0.27 | 1.36 | 2.27 | 2.64 | 1.99 |  |  |  |  |  |  | 0.51 | 9880
8 | F1.42.8 (antibody, human IgG1, kappa, V domains shown, Human-murine chimeric antibody) VH: HVQLQQPGAELVKPGASVKLSCKASGYTFTSYWMHWVRQRPGQGLEWIEMIHPNSGSTNYNEKFKSKATLTVDKSSSTAYMQLSSLTSEDSAVYYCARGNYNSSLYAMDYWGQGTSVTVSS VL: DIQMTQTTSSLSASLGDRVTISCSASQGISNYLNWYQQKPDGTVKLLIYYASNLHSGVPSRFSGSGSGTAYSLTISNLEPEDIATYYCQQYSILPYTFGGGTKLEIKR | 0.05 | 0.08 | 0.35 | 1.61 | 2.31 | 2.46 | 2.67 |  |  |  |  |  |  | 0.27 | 7620
9 | F1.153.1 (antibody, human IgG1, kappa, V domains shown, Human-murine chimeric antibody) VH: QIQLVQSGPELKKPGETVKISCKASGYTFTTAGMQWVQKMPGKGFKWIGWINTHSGEPQYAEDFKGRFAFSLETSASTAYLQISNLKNEDTATYFCARSFYYHGSSFFYFDYWGQGTTLTVSS VL: DIVMTQSQKFMSTTVGDRVSITCKASQNVGTAVAWYQQKPGQSPKLLIYSASNRYTGVPDRFTGSGSGADFTLTISNMQSEDLADYFCQQYSRYPLTFGAGTKLELKR | 0.27 | 0.36 | 0.49 | 1.06 | 1.61 | 1.98 | 2 | 0.92 | 6.22e-05 | 67600 | 0.414 | 4.27e-05 | 103000 |  | 
10 | F1.3.9 (antibody, human IgG1, kappa, V domains shown, Human-murine chimeric antibody) VH: QVQLQQPGTELVKPGASVKLSCKASGYTFTSYWIHWVKQRPGQGLEWIGNINPPNAGTNYNEKFKSKATLTVDKSSSTAYMQLSSLTSEDSAVYYCARGRWLLHDYWGQGTTLTVSS VL: DIQMTQSPASLSISVGETVTITCRASENIYSNLAWYQQKQGKSPQLLVYGTKNLAEGVPSRFSGSGSGTQYSLKINSLQSEDFGNYYCQHFWGTPYTFGGGTKLEILR | 0.04 | 0.05 | 0.16 | 0.56 | 1.52 | 1.7 | 1.82 | 2.54 | 7.28e-05 | 28700 | 1.24 | 4.74e-05 | 38200 |  | 
